What was measured:
[1] = target: T1, C-terminal biotin-labeled EGFR311-326 peptide (human, biotin at the C-terminus); assay: BLI (Octet RED), biotinylated peptide on streptavidin tips
T1 peptide: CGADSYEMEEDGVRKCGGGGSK
Method: After peptide capture, the coated tips were placed in 1 μM solutions of antibody and the binding responses were recorded (see FIG. 2). Controls I-III are the same as those described above.

EGFRvIII-mFc = target: T2, EGFRvIII-mFc (human); assay: SPR 37C, receptor-capture
T2 construct: Soluble dimeric protein
Method: Measurements were conducted on a T100 BIACORE™ instrument. […] In the receptor-capture format, either EGFRvIII-mFc or EGFR-mFc, was captured on the BIACORE™ chip and the respective antibodies flowed over. Kinetic association (kₐ) and dissociation (kd) rate constants were determined by processing and fitting the data to a 1:1 binding model using Scrubber 2.0 curve fitting software. Binding dissociation equilibrium constants (KD) and dissociative half-lives (t_{1/2}) were calculated from the kinetic rate constants as: KD (M)=kd/kₐ; and t₁₁₂ (min)=ln2/(60*kd).

B1: H1H1863N2(Fuc-) (antibody, human IgG1, V domains shown)
VH: EVQLVESGGGLVQPGGSLRLSCAASGFPFSSYDMHWVRQATGKGLEWVSAIGTAGATYYPGSVKGRFTISRENAKNSLYLQMNSLRAGDTAVYYCARGDYVWGTYRPLFDYWGQGTLVTVSS
VL: DIQLTQSPSFLSASVGDRVTITCWASQGINNYLAWYQQKPGKAPKLLIYAASTLQTGVPSRFSGSGSGTEFTLTISSLQPEDFATYYCQQLNSYPLTFGGGTKVEIK
notes: Human IgG1; also called H1H1863N2 with reduced fucosylation; H1H1862N2 (Fuc-)
[1]
  binding result: no binding (tested: 1 µM)
EGFRvIII-mFc
  T½: 54 min

Source: patent US20160304615A1 (Regeneron, published 2016)
